Data published in patent US20150307588A1.

How the values were obtained:
hBMP-9 (human) [1] = biological target: hBMP-9 (human) (UniProt Q9UK05); experiment: cell-based or functional assay
hBMP-10 (human) [2] = biological target: hBMP-10 (human) (UniProt O95393); experiment: cell-based or functional assay
hBMP-9 (human) [3] = biological target: hBMP-9 (human) (UniProt Q9UK05); experiment: SPR kinetics, captured CHO-cell-derived protein
hBMP-10 (human) [4] = biological target: hBMP-10 (human) (UniProt O95393); experiment: SPR kinetics, captured CHO-cell-derived protein

UniProt O95393, sequence (O95393 317-424 limits assumed): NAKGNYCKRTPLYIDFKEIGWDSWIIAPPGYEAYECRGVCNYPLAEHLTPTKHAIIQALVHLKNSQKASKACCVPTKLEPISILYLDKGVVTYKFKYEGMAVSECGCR
UniProt Q9UK05, sequence (Q9UK05 320-429 limits assumed): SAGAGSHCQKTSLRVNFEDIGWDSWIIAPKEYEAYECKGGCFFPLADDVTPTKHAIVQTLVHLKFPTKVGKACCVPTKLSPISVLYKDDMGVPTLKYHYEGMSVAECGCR

IC50 (nM), BRE-luciferase reporter-gene assay in A204 cells (hBMP-9 (human) [1]): 0.26 nM | IC50 (nM), BRE-luciferase reporter-gene assay in A204 cells (hBMP-10 (human) [2]): 7.9 nM | Kd (hBMP-9 (human) [3]): 33 pM | koff (hBMP-9 (human) [3]): 0.0025 s⁻¹ | Kd (hBMP-10 (human) [4]): 490 pM | koff (hBMP-10 (human) [4]): 0.011 s⁻¹
Substance: hENG(26-586)-hFc, CHO-cell-derived, with N-terminally truncated Fc domain (Fc fusion)
